Results taken from patent US20140378382A1 (WISCONSIN ALUMNI RESEARCH FOUNDATION, published 2014).
Where two headings read alike, the source gives them in different places. Values belong to the binder of their own block, whether it stands above or below them. Non-standard residues stand in square brackets, D forms with d. No end group written: not given here. β3hW = N[C@H](CC(=O)O)Cc1c[nH]c2ccccc12; β3hE = N[C@@H](CCC(=O)O)CC(=O)O; β3hF = N[C@H](CC(=O)O)Cc1ccccc1; β3hK = NCCCC[C@H](N)CC(=O)O; β3hM = CSCC[C@H](N)CC(=O)O; β3hD = NC(CC(=O)O)CC(=O)O

Assays:
[1] = biological target: T1, human parathyroid hormone receptor 1, wild-type (hPTHR-1) (human, UniProt Q03431 27-593); assay: cell-based or functional assay
T1 sequence (looked up): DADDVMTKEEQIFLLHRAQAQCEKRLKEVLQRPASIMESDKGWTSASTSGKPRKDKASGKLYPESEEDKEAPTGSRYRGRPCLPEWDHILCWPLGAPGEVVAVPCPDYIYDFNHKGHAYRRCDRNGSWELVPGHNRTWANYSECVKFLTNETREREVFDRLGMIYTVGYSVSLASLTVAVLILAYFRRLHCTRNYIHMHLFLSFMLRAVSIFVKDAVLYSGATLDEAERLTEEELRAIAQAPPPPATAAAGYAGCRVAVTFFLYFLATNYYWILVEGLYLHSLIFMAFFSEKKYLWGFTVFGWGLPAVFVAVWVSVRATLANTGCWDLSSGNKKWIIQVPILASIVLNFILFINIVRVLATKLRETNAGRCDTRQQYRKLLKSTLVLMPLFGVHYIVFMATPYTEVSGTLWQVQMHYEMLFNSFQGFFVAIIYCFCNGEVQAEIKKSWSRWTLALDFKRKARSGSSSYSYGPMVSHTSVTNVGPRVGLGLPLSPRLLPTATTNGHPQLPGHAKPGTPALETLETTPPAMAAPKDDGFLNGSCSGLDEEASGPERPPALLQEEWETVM

[2] = biological target: T2, rat parathyroid hormone receptor 1, wild-type (rPTHR-1) (rat, UniProt P25961 27-591); assay: cell-based or functional assay
T2 sequence (looked up): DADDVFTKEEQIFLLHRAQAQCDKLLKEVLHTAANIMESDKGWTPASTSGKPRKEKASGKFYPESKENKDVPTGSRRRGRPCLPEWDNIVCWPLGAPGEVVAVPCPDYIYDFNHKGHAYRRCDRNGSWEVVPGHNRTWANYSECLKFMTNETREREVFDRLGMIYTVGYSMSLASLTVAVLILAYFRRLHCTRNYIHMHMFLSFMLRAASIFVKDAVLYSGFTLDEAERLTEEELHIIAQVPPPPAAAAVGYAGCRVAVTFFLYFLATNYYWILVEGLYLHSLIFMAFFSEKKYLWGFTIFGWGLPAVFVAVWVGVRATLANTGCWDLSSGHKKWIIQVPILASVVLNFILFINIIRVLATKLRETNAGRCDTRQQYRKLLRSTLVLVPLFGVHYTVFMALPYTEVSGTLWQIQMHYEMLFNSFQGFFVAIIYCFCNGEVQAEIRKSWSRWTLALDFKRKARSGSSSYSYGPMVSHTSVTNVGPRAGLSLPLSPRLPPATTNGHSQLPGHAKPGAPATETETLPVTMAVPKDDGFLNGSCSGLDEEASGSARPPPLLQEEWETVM

[3] = biological target: T1, human parathyroid hormone receptor 1, …; assay: cell-based or functional assay; remark: listed apart in the source
[4] = biological target: T2, rat parathyroid hormone receptor 1, …; assay: cell-based or functional assay; remark: listed apart in the source
[5] = biological target: T2, rat parathyroid hormone receptor 1, …; assay: cell-based or functional assay; parameters: AUC-on / AUC-washout: unit not given beside the values
[6] = biological target: T1, human parathyroid hormone receptor 1, …; assay: R0 state; 125I-PTH(1-34) displacement; COS-7 membranes, hPTHR-1, GTPγS
From the text: (§1) ^aValues are means of n ≧4 experiments, each performed in duplicate.

[7] = biological target: T2, rat parathyroid hormone receptor 1, …; assay: R0 state; 125I-PTH(1-34) displacement; COS-7 membranes, rPTHR-1, GTPγS
From the text: (§2) Binding inhibition constants are expressed as the -log (IC50) and corresponding nanoMolar (nM) values. Values are means (±SEM) of the number of experiments shown (n), each performed in duplicate.

[8] = biological target: T1, human parathyroid hormone receptor 1, …; assay: R0 state; 125I-PTH(1-34) displacement; COS-7 membranes, hPTHR-1, GTPγS; remark: listed apart in the source
From the text: (§3) FIGS. 6A, 6B, 6C, 6D, 6E, and 6F constitute a series of graphs depicting binding of various analogs to the R⁰ and RG forms of human PTHR-1 (hPTHR-1). […] Data are means (±SEM) of n≧4 experiments, each performed in duplicate.

[9] = biological target: T2, rat parathyroid hormone receptor 1, …; assay: R0 state; 125I-PTH(1-34) displacement; COS-7 membranes, rPTHR-1, GTPγS; remark: listed apart in the source
From the text: as §2

[10] = biological target: T1, human parathyroid hormone receptor 1, …; assay: RG state; 125I-M-PTH(1-15) displacement; COS-7 membranes, hPTHR-1 + Gαs mutant
From the text: as §1

[11] = biological target: T2, rat parathyroid hormone receptor 1, …; assay: RG state; 125I-M-PTH(1-15) displacement; COS-7 membranes, rPTHR-1 + Gαs mutant
From the text: as §2

[12] = biological target: T1, human parathyroid hormone receptor 1, …; assay: RG state; 125I-M-PTH(1-15) displacement; COS-7 membranes, hPTHR-1 + Gαs mutant; remark: listed apart in the source
From the text: as §3

[13] = biological target: T2, rat parathyroid hormone receptor 1, …; assay: RG state; 125I-M-PTH(1-15) displacement; COS-7 membranes, rPTHR-1 + Gαs mutant; remark: listed apart in the source
From the text: as §2

[14] = biological target: T3, PTHR-1 (species and cells not stated for the assay) (Homo sapiens (Human), UniProt Q03431 27-593); assay: cell-based or functional assay
T3 sequence: T1 sequence (looked up)

[15] = biological target: T3, PTHR-1 (species and cells not stated …); assay: cell-based or functional assay; remark: listed apart in the source
[16] = biological target: T1, human parathyroid hormone receptor 1, …; assay: ratio of R0 IC50 to RG IC50, hPTHR-1
[17] = biological target: T2, rat parathyroid hormone receptor 1, …; assay: ratio of R0 IC50 to RG IC50, rPTHR-1
From the text: as §2

cAMP EC50 [1]: 110 pM
cAMP Max [1]: 0.98 relative to PTH(1-34)
cAMP EC50 [2]: 1450 pM
cAMP Max [2]: 0.78 relative to PTH(1-34)
cAMP EC50 [3]: 110 pM
cAMP Max [3]: 212 cps × 10^-3
cAMP pEC50 [3]: 9.97
cAMP EC50 [4]: 1450 pM
cAMP Max [4]: 51 cps × 10-3
cAMP pEC50 [4]: 8.84
AUC-on [5]: 130000
AUC-washout [5]: 84000
IC50 [6]: 19000 pM
IC50 [7]: 65000 pM
-log (IC50) [8]: 7.72
IC50 [8]: 19000 pM
-log (IC50) [9]: 7.18
IC50 [9]: 65000 pM
IC50 [10]: 86 pM
IC50 [11]: 4200 pM
-log (IC50) [12]: 10.1
IC50 [12]: 86 pM
-log (IC50) [13]: 8.37
IC50 [13]: 4200 pM
B1: B5 (peptide)
peptide: SVSEIQLMHNLGKHLNSMERVEWLRKKLQDVQNF-NH2
modifications: not fully specified (residues 20, 24, 28, 32); printed as SVSEIQLMHNLGKHLNSMERVEWLRKKLQDVQNF-NH2; also: five β3 residues, positions not given here in text
notes: also called α/β-peptide B5

cAMP EC50 [1]: 130 pM
cAMP Max [1]: 0.87 relative to PTH(1-34)
cAMP EC50 [2]: 330 pM
cAMP Max [2]: 0.76 relative to PTH(1-34)
Fold PTH(1-34) [3]: 0.76 fold
cAMP EC50 [3]: 130 pM
cAMP Max [3]: 189 cps × 10^-3
cAMP pEC50 [3]: 9.89
Fold PTH(1-34) [4]: 0.79 fold
cAMP EC50 [4]: 330 pM
cAMP Max [4]: 50 cps × 10-3
cAMP pEC50 [4]: 9.48
Fold PTH [14]: 2.1 fold
cAMP EC50 [14]: 170 pM
AUC Ratio [5]: 1.5
AUC-on [5]: 100000
AUC-washout [5]: 130000
cAMP response PTH1R/PTH2R [15]: 33 ratio
R^0/RG [16]: 31 ratio
R^0/RG [17]: 8 ratio
IC50 [6]: 2000 pM
IC50 [7]: 6100 pM
-log (IC50) [8]: 8.69
IC50 [8]: 2000 pM
-log (IC50) [9]: 8.22
IC50 [9]: 6100 pM
IC50 [10]: 65 pM
IC50 [11]: 810 pM
-log (IC50) [12]: 10.2
IC50 [12]: 65 pM
-log (IC50) [13]: 9.09
IC50 [13]: 810 pM
Binder: SVSEIQLMHNLGK[β3hW]LNS[β3hM]ERV[β3hE]WLR[β3hK]KLQ[β3hD]VHN[β3hF]-NH2 (also called α/β-peptide D6) [D6]
